Source: the nanobody polyreactivity screen of Harvey et al. (2022)

Experiment: yeast display, Sf9 membrane polyspecificity reagent, FACS + sequencing; frameworks hold sequencing errors
How it was run: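 A synthetic nanobody library was expressed on Saccharomyces cerevisiae BJ5465 by galactose induction for 36–48 hours. The library was stained for 1 hour at 4 °C with 10% biotinylated, detergent-solubilized Sf9 membrane reagent and enriched with streptavidin microbeads before FACS. Low and high (top ~1%) gates were set on anti-HA fluorescence for expression and streptavidin fluorescence for reagent binding, and each polyreactivity label reflects the gate of origin.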

Q: Which “polyreactivity (PSR sort gate)” value does the source give for “QVQLVESGGGLVQAGGSLRLSCAASGRTFGAYTMRWYRQAPGTERELVAAINRSGGDTYYADSVKGRFTISRDTAKNTVYLQMNSLKPEDNAVYYCNAEPRYGTYDYWGQGTQVTVSS” here?
A: low polyreactivity

Q: For “QVQLVESGGGLVQAGGSLRLSCAASGRTFGDYAKGWYRQAPGKERELVAAISKSGGITYYADSVKGRFTISRDNAKNTVYLQMNSLKPEDTAVYYCAARRSGEGNYWGQGTQVTVSS”, which “polyreactivity (PSR sort gate)” value is on record?
A: high polyreactivity

Q: With “QVQLVESGGGLVQAGGSLRLSCAASGRTFGEYAMGWYRQAPGKERELVAAISSAGSTYYADSVKGRFTISRDNAKNTVYLQMNSMKPDDTAVYYCASSRKYGYGYWGQRTQVTVSS” as the sequence, how does the “polyreactivity (PSR sort gate)” value read?
A: high polyreactivity

Q: With “QVQLVESGGGLVQAGGSLRLSCAASGRTFGEYVMGGYRQAPGKERELVASISRRGGSTYYADSVKGRFTLSRDNAKNTVYVLMNSQNPEDTAVYYCAKYRTQWSKNLYPYGFDYWGHGTQVTVSS” as the sequence, how does the “polyreactivity (PSR sort gate)” value read?
A: low polyreactivity

Q: Which “polyreactivity (PSR sort gate)” value does the source give for “QVQLVESGGGLVQAGGSLRLSCAASGRTFGFNAMGWSRPAPGKERELVAVITRGGSTYADSVKGRFTISRDNAKNTVYLQMNSLKPEDTAVYYCAAYRYGFKTWMDYWGQGTQVTVSS” here?
A: high polyreactivity

Q: For “QVQLVESGGGLVQAGGSLRLSCAASGRTFGFNAMGWYRQAPGKARELVAAISSSSSSTYYADSVKGRFTISRDNAKNTVYLQMNSLKPEDTAVYYCAKQEPYPFGGYYEYDYWGQGTQVTVSS”, which “polyreactivity (PSR sort gate)” value is on record?
A: low polyreactivity

Q: With “QVQLVESGGGLVQAGGSLRLSCAASGRTFGFNAMGWYRQAPGKERELVAAISGSGGRTYYADSVKGRFTISRDNAKNTVYLQMNSLKPEDTAVYYCAAGARRGGSGYWGQGTQVTVSS” as the sequence, how does the “polyreactivity (PSR sort gate)” value read?
A: high polyreactivity

Q: Which “polyreactivity (PSR sort gate)” value does the source give for “QVQLVESGGGLVQAGGSLRLSCAASGRTFGFNAMGWYRQAPGKERELVATITTGGSTNYADSVKGRFTISRDNAKNTVYLQMNSLKPEDTAVYYCATDGWFRSGYKYFTHFYFWGQGTQVTVSS” here?
A: high polyreactivity

Q: With “QVQLVESGGGLVQAGGSLRLSCAASGRTFGFNVMGCSRQAPGKERELVAAISWSGGSTYYADSVKGRFTISRDNAKNTVYLQLNSLKPEDTAVYYCNKRDDHRYGYWGQGTQVTVSS” as the sequence, how does the “polyreactivity (PSR sort gate)” value read?
A: low polyreactivity

Q: With “QVQLVESGGGLVQAGGSLRLSCAASGRTFGFNVMGWYRQAPGKEREFVAAITRSGGSTYYADSVKGRFTISRDIAKNTVYLQMNSLKPEDTAVYSCAAYKFSARYYYWGQGTQVTVSS” as the sequence, how does the “polyreactivity (PSR sort gate)” value read?
A: high polyreactivity

Q: With “QVQLVESGGGLVQAGGSLRLSCAASGRTFGFYAMGWYRQAPGKEREFVAAIYKSGGSTYYADSVKGRFTISRDIANNTVYLQMISLKPEDTAVYYCIKKVGSYYRSYYYWGQGTQVTVSS” as the sequence, how does the “polyreactivity (PSR sort gate)” value read?
A: high polyreactivity

Q: With “QVQLVESGGGLVQAGGSLRLSCAASGRTFGFYAMGWYRQAPGKERELVAAITSSGGRTYYADSVKGRFTISRDNAKNTVYLQMNSLKPEDTAVYYCATSGRGKYIRYGYWGQGTQVTVSS” as the sequence, how does the “polyreactivity (PSR sort gate)” value read?
A: high polyreactivity

Q: Which “polyreactivity (PSR sort gate)” value does the source give for “QVQLVESGGGLVQAGGSLRLSCAASGRTFGFYAMGWYRQAPGKERELVASITWRRGRTYYADSVKGRFTISRDNAKNTLYLQMNSLNPEDTAVYYCAAVTFSYDGYDYWGQGTQVTVSS” here?
A: low polyreactivity

Q: With “QVQLVESGGGLVQAGGSLRLSCAASGRTFGGNAMGWYRQAPGKEWELVAAIDQSGGSTYYADSVKGRFTISRDNAKNTVYLQMISLKPEDTAVYYCARKTYSYFGHYYFWGQGTQVTVSS” as the sequence, how does the “polyreactivity (PSR sort gate)” value read?
A: low polyreactivity

Q: For “QVQLVESGGGLVQAGGSLRLSCAASGRTFGGNTMGWYRQAPGKERELVAAISFSGGSTYYADSVKGRFTISRDNAKNTVYLQMNSLKPEDTAVYYCAKDPITATTLDERVYYWGQGTQVTVSS”, which “polyreactivity (PSR sort gate)” value is on record?
A: low polyreactivity

Q: For “QVQLVESGGGLVQAGGSLRLSCAASGRTFGGNVRGWYRQAPGKERELVAAISYSGGSTHYADSVKGRFTISRDNAKNTVYLQMMSLIPEDTAVYYCNKPFPYYPDGPNGYDYWGQGTQVTVSS”, which “polyreactivity (PSR sort gate)” value is on record?
A: low polyreactivity

Q: With “QVQLVESGGGLVQAGGSLRLSCAASGRTFGGYAMGSYRQAPGKERELVAAISRSGGRTYYADSVKGRFTISRDNAKNTVYLQMNSLKPEDSAVYYWADRLYVGPTAMDYWGEGTQVTVSS” as the sequence, how does the “polyreactivity (PSR sort gate)” value read?
A: high polyreactivity

Q: For “QVQLVESGGGLVQAGGSLRLSCAASGRTFGHNAMGWYRQAPGKEREFVAAITYSGVRTFYADSVKGRFTISRDNAKNTVYLQMNSLKPEDTAVYYCATDWRRDYDYWGQGTQVTVSS”, which “polyreactivity (PSR sort gate)” value is on record?
A: low polyreactivity

Q: For “QVQLVESGGGLVQAGGSLRLSCAASGRTFGHYAMGWYRQAPGKERELVAAITSRGGSTNYADSVKGRFTISRDNAKKTDYLQMNSLKPEDTAVYYCAARLSPEEGYWGQGTQVTVSS”, which “polyreactivity (PSR sort gate)” value is on record?
A: high polyreactivity

Q: With “QVQLVESGGGLVQAGGSLRLSCAASGRTFGINAMGWYRQAPGKERELVAVISFGEGGTYYADSVKGRFTISRDNAKNTVYLQMNSLKPEDTAVYYCATDYQSTSVWGGHFVINPYDYWGLGTQVTVSS” as the sequence, how does the “polyreactivity (PSR sort gate)” value read?
A: low polyreactivity

Q: For “QVQLVESGGGLVQAGGSLRLSCAASGRTFGINDMGWYRQAPGKERELVAVIRSGGGITFYADSVKGRFTISRDNAKNTVYLQMTSLKPEDTAVYYCAKTRRDFYDAINGGGPERYDYWGQGTQVTVSS”, which “polyreactivity (PSR sort gate)” value is on record?
A: low polyreactivity

Q: Which “polyreactivity (PSR sort gate)” value does the source give for “QVQLVESGGGLVQAGGSLRLSCAASGRTFGIYAMGWYRQAPGKEREFVAAISWSGTSTHYADSVKGRFTISRDNAKNTVYLQMNSLKPEDTAVYYCNADSRTYRYYWSYGYWGQGTQVTVSS” here?
A: high polyreactivity

Q: With “QVQLVESGGGLVQAGGSLRLSCAASGRTFGIYAMGWYRQAPGKERELVAAIRWRDGSTYYADSVKGRFTISRDNAKNTVYLQMNSLKPEDTAVYYCAATSRVYVRGSYWKYGYWGQGTQVTVSS” as the sequence, how does the “polyreactivity (PSR sort gate)” value read?
A: high polyreactivity

Q: With “QVQLVESGGGLVQAGGSLRLSCAASGRTFGKNAMGWYRQAPGKERELVAAIRYRTGSTYYADSVKGRFTISRDNAKNTVYLQMNSLKPEDTAVYYCAKVGSSPLYWGQGTQVTVSS” as the sequence, how does the “polyreactivity (PSR sort gate)” value read?
A: high polyreactivity

Q: With “QVQLVESGGGLVQAGGSLRLSCAASGRTFGKNAMGWYRQAPGKEREYVAAITSRGGSTYYADSVKGRFTISRDNAKNTVYLKMYSLKPDDTAFYFCNREYKRPSQRTEHYYWGQGTQVTVSS” as the sequence, how does the “polyreactivity (PSR sort gate)” value read?
A: low polyreactivity

Q: With “QVQLVESGGGLVQAGGSLRLSCAASGRTFGKYAMGWYRQAPGKEREFVAAISRSGGNTYYADSVKGRFTISRDNAKNTVYLQMNSLKPEDTAVYYCAAKGFFYYWGQGTQVTVSS” as the sequence, how does the “polyreactivity (PSR sort gate)” value read?
A: high polyreactivity

Q: With “QVQLVESGGGLVQAGGSLRLSCAASGRTFGKYAMGWYRQAPGKERELVAAITNSGGSTYYADSVKGRFTISRDNAKNTVYLQMNSLKPEDTAVYYCNRLGYRGTSKLNHMGYWGQGTQVTVSS” as the sequence, how does the “polyreactivity (PSR sort gate)” value read?
A: high polyreactivity

Q: With “QVQLVESGGGLVQAGGSLRLSCAASGRTFGLNAMGWYRQAPGKERELVAAISSSGGSTYYADSVKGRFTISRDNAKNTVYLQMNSLKPEDTAVYYSAKVLYLYGTAYYYWGQGTEVTVSS” as the sequence, how does the “polyreactivity (PSR sort gate)” value read?
A: high polyreactivity

Q: For “QVQLVESGGGLVQAGGSLRLSCAASGRTFGLYAMGWYRQAPGKERELVAAIDQSTGSTYYADSVKGRFTISRDNAKNTVYLQMNSLKPEDTAVYYCAAEEASTVRYYWYDYWGQVTQVTVSS”, which “polyreactivity (PSR sort gate)” value is on record?
A: high polyreactivity

Q: Which “polyreactivity (PSR sort gate)” value does the source give for “QVQLVESGGGLVQAGGSLRLSCAASGRTFGLYAMGWYRQAPGKERELVAAISRSGGRTYYADSVKGRFTISRDNAKNTVYLQMNSLKPEDTAVYYCSTYYDRASYRYDYWGQGTQETVSS” here?
A: high polyreactivity
